From article PMC11599015

Target: recombinant circular RABV N10-RNA complex purified from insect cells (phosphorylated) (rabies virus (RABV)) (UniProt Q8JXF6)
Assay: SPR

Chain of recombinant circular RABV N10-RNA complex purified from insect cells (phosphorylated) (rabies virus (RABV)) (Q8JXF6 whole entry, one chain of several): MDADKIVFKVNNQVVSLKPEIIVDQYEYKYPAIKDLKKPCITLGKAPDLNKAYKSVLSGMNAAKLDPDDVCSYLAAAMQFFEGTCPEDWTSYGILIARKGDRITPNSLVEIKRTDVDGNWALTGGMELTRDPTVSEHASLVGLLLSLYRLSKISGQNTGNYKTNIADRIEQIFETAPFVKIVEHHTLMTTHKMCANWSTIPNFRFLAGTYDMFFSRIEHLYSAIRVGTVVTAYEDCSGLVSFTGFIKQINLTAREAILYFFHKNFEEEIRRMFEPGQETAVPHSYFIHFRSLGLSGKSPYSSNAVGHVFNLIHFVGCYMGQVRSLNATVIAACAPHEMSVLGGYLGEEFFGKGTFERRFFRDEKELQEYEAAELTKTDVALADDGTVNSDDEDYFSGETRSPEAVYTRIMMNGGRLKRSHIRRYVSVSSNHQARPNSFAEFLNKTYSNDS

## RABV phosphoprotein P deleted of residues 90-133 (dimerization domain) (domain or fragment)
  Kd: 80 nM
  stoichiometry N: 1.7
